Results published in article PMC11203576.

Molecular target: SARS-CoV-2 spike protein RBD, original (wild-type), sfGFP fusion (SARS-CoV-2) (UniProt P0DTC2)
Assay: SPR; Biacore T200; […] (0.01 M HEPES, 0.15 M NaCl, 3 mM EDTA, 0.05% surfactant P20, […]

Substance: Jacalin (natural protein)
- Kd: 428 nM
